± gives the uncertainty stated by the source.
Test: protein stability index of a GFP-peptide fusion (yeast GPS) (PSI 1-4); higher = more stable; sorted into four equal gates, so the index is relative within each strain
Outline: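 Each library plasmid carries Cherry plus GFP with a tiled 17-residue yeast protein peptide fused downstream, and the pooled library was carried in yeast. Mid-log cultures in leucine-free medium were sorted into four equal gates by GFP/Cherry ratio. Reads from Illumina sequencing of PCR-amplified plasmids from each gate were assigned to strains by barcodes. Per peptide, the protein stability index was computed as the summed products of gate read frequency and gate number.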

IIGKTTPISPDEEELGQ [RPB2]
protein stability index (san1∆): 2.81 ± 0.23 | protein stability index (ubr1∆): 2.98 ± 0.29

NINAKMETRINILLRER [YIL149C/MLP2]
protein stability index (doa10∆): 2.98 ± 0.18 | protein stability index (pdr5∆): 3.35 ± 0.12 | protein stability index (san1∆): 2.61 ± 0.12 | protein stability index (ubr1∆): 3.15 ± 0.1

FLFAPELGAINLHALSM [SWI1]
protein stability index (doa10∆): 1.84 ± 0.087 | protein stability index (pdr5∆): 2.05 ± 0.08 | protein stability index (san1∆): 2.49 ± 0.12 | protein stability index (ubr1∆): 2.17 ± 0.056

THNFKLSGVSNSMDMVD [RGR1]
protein stability index (doa10∆): 3.09 ± 0.068 | protein stability index (pdr5∆): 3 ± 0.074 | protein stability index (san1∆): 2.93 ± 0.06 | protein stability index (ubr1∆): 3.08 ± 0.062

MGKSHGYRSRTRYMFQR [RPL21A]
protein stability index (doa10∆): 3.15 ± 0.094 | protein stability index (pdr5∆): 3.25 ± 0.093 | protein stability index (san1∆): 3.3 ± 0.056 | protein stability index (ubr1∆): 3.32 ± 0.055

DKQARKQRTKKEDKSEA [SNF2]
protein stability index (doa10∆): 3.64 ± 0.14 | protein stability index (pdr5∆): 3.54 ± 0.13 | protein stability index (san1∆): 3.25 ± 0.077 | protein stability index (ubr1∆): 3.29 ± 0.11

NNNPLQQQSSQNTVPNV [GAL11]
protein stability index (doa10∆): 2.65 ± 0.046 | protein stability index (pdr5∆): 2.86 ± 0.041 | protein stability index (san1∆): 3 ± 0.033 | protein stability index (ubr1∆): 2.82 ± 0.03

VAATNTPIIFIGTGEHI [SRP54]
protein stability index (doa10∆): 2.17 ± 0.1 | protein stability index (pdr5∆): 3.03 ± 0.12 | protein stability index (san1∆): 2.26 ± 0.083 | protein stability index (ubr1∆): 2.6 ± 0.071

HMAKGLYYGSYRSPRVL [COB]
protein stability index (doa10∆): 1.6 ± 0.15 | protein stability index (pdr5∆): 1.1 ± 0.12 | protein stability index (san1∆): 1.3 ± 0.13

TAFALGIACAGKGLQSA [RPN2]
protein stability index (doa10∆): 1.25 ± 0.086 | protein stability index (pdr5∆): 1.33 ± 0.11 | protein stability index (san1∆): 1.3 ± 0.17 | protein stability index (ubr1∆): 1.19 ± 0.076

YFLVLSPYGNLQNDLIH [RPN5]
protein stability index (doa10∆): 1.92 ± 0.091 | protein stability index (pdr5∆): 2.42 ± 0.1 | protein stability index (san1∆): 2.64 ± 0.089 | protein stability index (ubr1∆): 2.67 ± 0.14

LQYIIHDTLNNEIANSI [BRR2]
protein stability index (doa10∆): 2.67 ± 0.057 | protein stability index (pdr5∆): 2.69 ± 0.076 | protein stability index (san1∆): 2.86 ± 0.077 | protein stability index (ubr1∆): 2.76 ± 0.056

MFFIKDLSLNITLHPSF [RPB7]
protein stability index (pdr5∆): 1.97 ± 0.16 | protein stability index (ubr1∆): 2.24 ± 0.26

QPIVTGTSVISMKYDNG [PRE4]
protein stability index (doa10∆): 2.1 ± 0.25 | protein stability index (pdr5∆): 2.69 ± 0.23 | protein stability index (san1∆): 1.93 ± 0.15 | protein stability index (ubr1∆): 2 ± 0.2

KLLGIGDIESLFEQLQT [SRP54]
protein stability index (doa10∆): 1.58 ± 0.062 | protein stability index (pdr5∆): 2.15 ± 0.069 | protein stability index (san1∆): 2.2 ± 0.13 | protein stability index (ubr1∆): 2.67 ± 0.064

VFQLPTRLPAFERPAVK [RPC53]
protein stability index (doa10∆): 3.01 ± 0.093 | protein stability index (pdr5∆): 2.89 ± 0.072 | protein stability index (san1∆): 2.81 ± 0.1 | protein stability index (ubr1∆): 3.01 ± 0.079

YKNHELLKLERKKTEAV [SNF2]
protein stability index (doa10∆): 3.14 ± 0.081 | protein stability index (pdr5∆): 3.17 ± 0.074 | protein stability index (san1∆): 3.08 ± 0.05 | protein stability index (ubr1∆): 3.13 ± 0.064

QEQYQTNTFEGSGNNNE [SNU114]
protein stability index (pdr5∆): 3.59 ± 0.23 | protein stability index (san1∆): 3.3 ± 0.13

DEGMESIEMEEETDDED [RRI2]
protein stability index (san1∆): 3.26 ± 0.18 | protein stability index (ubr1∆): 3.35 ± 0.14

YDLVDNKGAKAEDVALN [NAS6]
protein stability index (doa10∆): 2.8 ± 0.14 | protein stability index (pdr5∆): 3.39 ± 0.27 | protein stability index (san1∆): 2.87 ± 0.12 | protein stability index (ubr1∆): 3.07 ± 0.071

RNIILEARFDVLITSYE [ISW2]
protein stability index (doa10∆): 2.85 ± 0.11 | protein stability index (pdr5∆): 2.22 ± 0.076 | protein stability index (san1∆): 2.41 ± 0.088 | protein stability index (ubr1∆): 2.61 ± 0.074

NYKGLPKKYKENNTDSA [SMC1]
protein stability index (doa10∆): 3.32 ± 0.07 | protein stability index (pdr5∆): 3.31 ± 0.085 | protein stability index (san1∆): 3.28 ± 0.045 | protein stability index (ubr1∆): 3.36 ± 0.061

GKAKGDIPGVRFKVVKV [RPS23A]
protein stability index (doa10∆): 3.32 ± 0.19 | protein stability index (pdr5∆): 3.42 ± 0.18

TPSFSFGAKSDENKAGA [YJL041W/NSP1]
protein stability index (doa10∆): 3.51 ± 0.28 | protein stability index (pdr5∆): 3.19 ± 0.16 | protein stability index (san1∆): 3.17 ± 0.15

MAKRTKKVGITGKYGVR [RPL43A]
protein stability index (doa10∆): 3.36 ± 0.11 | protein stability index (pdr5∆): 3.34 ± 0.094 | protein stability index (san1∆): 3.09 ± 0.1 | protein stability index (ubr1∆): 3.55 ± 0.082

TVPEYLKTADNRDRSFQ [PGD1]
protein stability index (doa10∆): 3.08 ± 0.084 | protein stability index (pdr5∆): 3.07 ± 0.079 | protein stability index (san1∆): 3.3 ± 0.038 | protein stability index (ubr1∆): 3.07 ± 0.049

RYFFWLQEKNSGNLPLN [RPN13]
protein stability index (doa10∆): 3.04 ± 0.16 | protein stability index (pdr5∆): 3 ± 0.085 | protein stability index (san1∆): 2.81 ± 0.063 | protein stability index (ubr1∆): 2.87 ± 0.11

PNLNMKYRKRQLVTREA [FAS2]
protein stability index (doa10∆): 3.68 ± 0.15 | protein stability index (pdr5∆): 3.13 ± 0.11 | protein stability index (san1∆): 3 ± 0.095 | protein stability index (ubr1∆): 3.05 ± 0.081

MSACVGQQSVEGKRIAF [RPO21]
protein stability index (doa10∆): 2.27 ± 0.26 | protein stability index (pdr5∆): 1.97 ± 0.16 | protein stability index (san1∆): 1.62 ± 0.24 | protein stability index (ubr1∆): 2.63 ± 0.24

IPFPDHNQSPRNTYQSA [RPB2]
protein stability index (doa10∆): 2.97 ± 0.083 | protein stability index (pdr5∆): 3.06 ± 0.067 | protein stability index (san1∆): 3.22 ± 0.056 | protein stability index (ubr1∆): 2.78 ± 0.063

NDSKEESTTEATGNESQ [YLR335W/NUP2]
protein stability index (pdr5∆): 3.14 ± 0.18 | protein stability index (san1∆): 2.97 ± 0.22 | protein stability index (ubr1∆): 3.35 ± 0.1

SKQPNSAIRKCVRVQLI [RPS23A]
protein stability index (doa10∆): 2.69 ± 0.078 | protein stability index (pdr5∆): 2.77 ± 0.064 | protein stability index (san1∆): 1.79 ± 0.096 | protein stability index (ubr1∆): 2.96 ± 0.045

FNITDNGVRALFHSCTR [GRR1]
protein stability index (doa10∆): 1.53 ± 0.11 | protein stability index (pdr5∆): 2.52 ± 0.088 | protein stability index (san1∆): 1.09 ± 0.15 | protein stability index (ubr1∆): 2.35 ± 0.054

RTTTNTTAEPKAKRAKT [TAF14]
protein stability index (doa10∆): 2.67 ± 0.28 | protein stability index (pdr5∆): 2.98 ± 0.25 | protein stability index (san1∆): 3.1 ± 0.088 | protein stability index (ubr1∆): 2.59 ± 0.2

LASNFDNFDYFNQRDGE [MED1]
protein stability index (doa10∆): 3.3 ± 0.08 | protein stability index (pdr5∆): 3.17 ± 0.09 | protein stability index (san1∆): 3.2 ± 0.084 | protein stability index (ubr1∆): 3.1 ± 0.11

SHTQNIGHLIKTRFKGS [SMC2]
protein stability index (doa10∆): 2.94 ± 0.11 | protein stability index (pdr5∆): 1.98 ± 0.086 | protein stability index (san1∆): 1.96 ± 0.13 | protein stability index (ubr1∆): 2.27 ± 0.066

KKDIKIGTNDLFQVESA [SIR4]
protein stability index (doa10∆): 2.62 ± 0.082 | protein stability index (pdr5∆): 3.22 ± 0.066 | protein stability index (san1∆): 2.88 ± 0.07 | protein stability index (ubr1∆): 2.33 ± 0.054

GKRQLMKAVGEYMKRHP [SEC65]
protein stability index (doa10∆): 2.73 ± 0.082 | protein stability index (pdr5∆): 3.31 ± 0.091 | protein stability index (san1∆): 2.94 ± 0.071 | protein stability index (ubr1∆): 2.47 ± 0.086

THLHEALDIVCSDFVKI [NUT1]
protein stability index (doa10∆): 2.28 ± 0.089 | protein stability index (pdr5∆): 2.48 ± 0.063 | protein stability index (san1∆): 2.15 ± 0.11 | protein stability index (ubr1∆): 1.92 ± 0.078

PSADGADKKDDSESNSE [ITC1]
protein stability index (doa10∆): 2.83 ± 0.083 | protein stability index (pdr5∆): 3.11 ± 0.065 | protein stability index (san1∆): 3.34 ± 0.068 | protein stability index (ubr1∆): 2.96 ± 0.068

VNCFHEDTELYQELIKN [YJL039C/NUP192]
protein stability index (doa10∆): 2.13 ± 0.12 | protein stability index (pdr5∆): 2.82 ± 0.16 | protein stability index (san1∆): 2.83 ± 0.081 | protein stability index (ubr1∆): 2.67 ± 0.056

HGIVFQHPFPLAHSQHR [SSN2]
protein stability index (doa10∆): 2.14 ± 0.066 | protein stability index (pdr5∆): 2.23 ± 0.068 | protein stability index (san1∆): 2.01 ± 0.085 | protein stability index (ubr1∆): 2.38 ± 0.078

ISTLFQRDRHTLAYDRG [PRP8]
protein stability index (doa10∆): 2.58 ± 0.14 | protein stability index (pdr5∆): 3.21 ± 0.13 | protein stability index (san1∆): 2.68 ± 0.082 | protein stability index (ubr1∆): 2.79 ± 0.058

VLPKIFNSVKSFDEWFN [SNF2]
protein stability index (doa10∆): 2.83 ± 0.18 | protein stability index (pdr5∆): 2.43 ± 0.078 | protein stability index (san1∆): 1.55 ± 0.2 | protein stability index (ubr1∆): 1.77 ± 0.077

EVTKSSHVENLEEKLYQ [YIL149C/MLP2]
protein stability index (doa10∆): 2.76 ± 0.073 | protein stability index (pdr5∆): 2.97 ± 0.072 | protein stability index (san1∆): 2.93 ± 0.052 | protein stability index (ubr1∆): 2.98 ± 0.048

YKKSTENESTNYQYKIQ [MED7]
protein stability index (doa10∆): 2.58 ± 0.046 | protein stability index (pdr5∆): 2.48 ± 0.045 | protein stability index (san1∆): 2.41 ± 0.055 | protein stability index (ubr1∆): 2.59 ± 0.035

LSGNPLTSVTNDICSVE [SIR4]
protein stability index (doa10∆): 2.54 ± 0.068 | protein stability index (pdr5∆): 2.95 ± 0.064 | protein stability index (san1∆): 3.09 ± 0.058 | protein stability index (ubr1∆): 2.96 ± 0.062

VRTHMRNMIIVPEMIGS [RPS15]
protein stability index (doa10∆): 1.25 ± 0.059 | protein stability index (pdr5∆): 1.47 ± 0.06 | protein stability index (san1∆): 1.39 ± 0.12 | protein stability index (ubr1∆): 1.54 ± 0.05

PNFDWDLCSSVLSQFER [ROX3]
protein stability index (doa10∆): 3.12 ± 0.079 | protein stability index (pdr5∆): 2.8 ± 0.095 | protein stability index (san1∆): 2.6 ± 0.08 | protein stability index (ubr1∆): 2.59 ± 0.067

VKVKVSYQKLLKNYVLN [PRP8]
protein stability index (doa10∆): 1.33 ± 0.043 | protein stability index (pdr5∆): 1.36 ± 0.035 | protein stability index (san1∆): 1.46 ± 0.062 | protein stability index (ubr1∆): 1.63 ± 0.036

TILSSKLSNIWMQRQLI [SRB2]
protein stability index (doa10∆): 2.33 ± 0.11 | protein stability index (pdr5∆): 1.96 ± 0.1 | protein stability index (san1∆): 2.76 ± 0.1 | protein stability index (ubr1∆): 2.82 ± 0.051

Source: the supplement of paper PMC9732359
